Experimental data reported in PMC7057995, “Structural basis of RNA polymerase I pre-initiation complex formation and promoter melting”.

Tests used:
[1] = molecular target: RNA polymerase I;Rrn3;Core factor (CF) wild type: Rrn6/Rrn7/Rrn11;UAF … (Saccharomyces cerevisiae;Saccharomyces …, UniProt P10964;P22138;P07703;P46669;P50106;P20434;P20435;P28000;P20436;P32529;P22139;P40 …, |||||); assay: size exclusion chromatography; complete early PIC, stable throughout SEC; EMSA: 20 mM HEPES/KOH pH 7.8, 10% glycerol, 200 mM KCl, 1 mM MgCl2, 0.1 mg/ml BSA, 1 mM DTT, 30 min, temperature not stated; 6% native gel, 0.5x TBE
CF with Rrn7 Δloop α7-α8 = CF with Rrn7 Δloop α7-α8 (Saccharomyces cerevisiae, UniProt P32786;P40992;Q04712 1-894;1-286+298-514;1-507, internal_change); assay: EMSA; 0.2 pmol DNA; 0.25-1 pmol CF; binding not impaired; EMSA: 20 mM HEPES/KOH pH 7.8, 10% glycerol, 200 mM KCl, 1 mM MgCl2, 0.1 mg/ml BSA, 1 mM DTT, 30 min, temperature not stated; 6% native gel, 0.5x TBE; conditions: protein: recombinant; tags: His (Ni-NTA purified); copies: 1;1;1; label: NTS -3 Atto647N; TS -5 Cy3; blunt
CF with Rrn7 Δα4a = CF with Rrn7 Δα4a (Saccharomyces cerevisiae, UniProt P32786;P40992;Q04712 1-894;1-208+221-514;1-507, internal_change); assay: as above; conditions: protein: recombinant; tags: His (Ni-NTA purified); copies: 1;1;1; label: NTS -3 Atto647N; TS -5 Cy3; blunt
CF with Rrn7 Δα4a, sequence (P32786 whole entry, stated change not applied, chain 1 of 3): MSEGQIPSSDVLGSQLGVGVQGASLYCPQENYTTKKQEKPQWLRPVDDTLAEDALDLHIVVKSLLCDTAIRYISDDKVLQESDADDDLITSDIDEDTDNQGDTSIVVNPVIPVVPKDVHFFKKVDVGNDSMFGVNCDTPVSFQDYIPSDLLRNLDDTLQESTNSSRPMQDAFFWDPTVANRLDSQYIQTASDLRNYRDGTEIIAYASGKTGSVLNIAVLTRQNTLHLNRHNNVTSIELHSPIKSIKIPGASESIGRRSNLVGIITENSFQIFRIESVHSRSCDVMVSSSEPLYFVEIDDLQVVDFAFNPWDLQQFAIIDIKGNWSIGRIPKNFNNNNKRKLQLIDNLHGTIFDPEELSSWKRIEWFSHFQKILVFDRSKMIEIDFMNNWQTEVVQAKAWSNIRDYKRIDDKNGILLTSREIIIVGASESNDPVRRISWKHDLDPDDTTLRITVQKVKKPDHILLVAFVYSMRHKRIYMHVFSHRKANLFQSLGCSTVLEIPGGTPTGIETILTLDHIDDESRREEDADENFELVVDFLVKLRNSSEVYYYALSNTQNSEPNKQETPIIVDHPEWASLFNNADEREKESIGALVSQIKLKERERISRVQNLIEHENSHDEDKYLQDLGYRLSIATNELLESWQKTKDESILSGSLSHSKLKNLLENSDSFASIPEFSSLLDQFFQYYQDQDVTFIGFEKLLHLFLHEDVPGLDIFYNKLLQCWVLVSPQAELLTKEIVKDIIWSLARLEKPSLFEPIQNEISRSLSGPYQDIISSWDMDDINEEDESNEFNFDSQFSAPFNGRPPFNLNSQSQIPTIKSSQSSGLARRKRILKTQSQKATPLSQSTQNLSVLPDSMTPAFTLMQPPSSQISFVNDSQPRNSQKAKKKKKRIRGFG
CF with Rrn7 Δα4a, sequence (P40992 other isoform, or with tags, fused parts or gaps | mutant, chain 2 of 3): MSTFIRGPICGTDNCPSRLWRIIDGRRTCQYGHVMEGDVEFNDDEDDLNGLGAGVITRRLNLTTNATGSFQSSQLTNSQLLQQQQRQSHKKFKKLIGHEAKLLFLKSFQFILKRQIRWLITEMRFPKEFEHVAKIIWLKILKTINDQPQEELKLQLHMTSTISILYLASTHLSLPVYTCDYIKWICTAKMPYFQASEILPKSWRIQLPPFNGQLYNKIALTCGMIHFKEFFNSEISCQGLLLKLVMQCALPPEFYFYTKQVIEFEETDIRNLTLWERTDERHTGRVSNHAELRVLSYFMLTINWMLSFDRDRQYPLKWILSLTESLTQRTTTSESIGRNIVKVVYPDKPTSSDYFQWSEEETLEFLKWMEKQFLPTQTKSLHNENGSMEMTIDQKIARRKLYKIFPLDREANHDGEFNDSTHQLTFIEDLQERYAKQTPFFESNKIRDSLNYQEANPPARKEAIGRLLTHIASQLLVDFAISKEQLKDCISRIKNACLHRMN
CF with Rrn7 Δα4a, sequence (Q04712 whole entry, stated change not applied, chain 3 of 3): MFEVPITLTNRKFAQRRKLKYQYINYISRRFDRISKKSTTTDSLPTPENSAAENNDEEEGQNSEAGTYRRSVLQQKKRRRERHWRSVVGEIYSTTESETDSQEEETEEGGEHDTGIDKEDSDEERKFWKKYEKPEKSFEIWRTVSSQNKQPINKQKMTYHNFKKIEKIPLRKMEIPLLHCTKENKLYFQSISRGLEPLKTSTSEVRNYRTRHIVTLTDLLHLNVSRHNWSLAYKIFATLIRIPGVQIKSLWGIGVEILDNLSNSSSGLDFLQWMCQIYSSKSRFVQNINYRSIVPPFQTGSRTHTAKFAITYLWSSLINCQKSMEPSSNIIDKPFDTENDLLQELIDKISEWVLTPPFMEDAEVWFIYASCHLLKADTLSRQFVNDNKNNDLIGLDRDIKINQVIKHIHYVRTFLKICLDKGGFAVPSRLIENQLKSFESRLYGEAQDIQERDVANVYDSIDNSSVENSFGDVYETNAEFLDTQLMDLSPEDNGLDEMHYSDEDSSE

CF with Rrn7 Δloop α7-α8, sequence (P32786 whole entry, stated change not applied, chain 1 of 3): as the sequence (P32786 whole entry, stated change not applied, chain 1 of 3) above
CF with Rrn7 Δloop α7-α8, sequence (P40992 other isoform, or with tags, fused parts or gaps | mutant, chain 2 of 3): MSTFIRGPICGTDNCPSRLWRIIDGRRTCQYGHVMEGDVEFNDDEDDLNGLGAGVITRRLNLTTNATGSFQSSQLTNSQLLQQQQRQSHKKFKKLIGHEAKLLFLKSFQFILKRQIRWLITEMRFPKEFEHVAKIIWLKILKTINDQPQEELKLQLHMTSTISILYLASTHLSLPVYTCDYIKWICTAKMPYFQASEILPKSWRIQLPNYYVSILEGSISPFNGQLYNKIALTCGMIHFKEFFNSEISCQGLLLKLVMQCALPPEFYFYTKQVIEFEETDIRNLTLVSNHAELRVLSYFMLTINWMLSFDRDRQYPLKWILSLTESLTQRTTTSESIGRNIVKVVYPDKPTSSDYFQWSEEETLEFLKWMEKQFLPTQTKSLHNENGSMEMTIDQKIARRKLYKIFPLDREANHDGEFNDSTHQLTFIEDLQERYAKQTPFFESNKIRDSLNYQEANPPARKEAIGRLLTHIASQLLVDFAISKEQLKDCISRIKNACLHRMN
CF with Rrn7 Δloop α7-α8, sequence (Q04712 whole entry, stated change not applied, chain 3 of 3): as the sequence (Q04712 whole entry, stated change not applied, chain 3 of 3) above

Row | Binder | binding result [1] | binding result (CF with Rrn7 Δloop α7-α8) | binding result (CF with Rrn7 Δα4a)
1 | rDNA promoter -155 to +8 (PIC scaffold; ID 4693/4694) (dsDNA) DNA 1: AGCTTAAATTGAAGTTTTTCTCGGCGAGAAATACGTAGTTAAGGCAGAGCGACAGAGAGGGCAAAAGAAAATAAAAGTAAGATTTTAGTTTGTAATGGGAGGGGGGGTTTAGTCATGGAGTACAAGTGTGAGGAAAAGTAGTTGGGAGGTACTTCATGCGAAA DNA 2: TTTCGCATGAAGTACCTCCCAACTACTTTTCCTCACACTTGTACTCCATGACTAAACCCCCCCTCCCATTACAAACTAAAATCTTACTTTTATTTTCTTTTGCCCTCTCTGTCGCTCTGCCTTAACTACGTATTTCTCGCCGAGAAAAACTTCAATTTAAGCT | binds |  | 
2 | rDNA promoter -83 to +26 (EMSA; ID 4691/4692) (dsDNA) DNA 1: AAAAGTAAGATTTTAGTTTGTAATGGGAGGGGGAATTTAGTCATGGAGTACAAGTGTGAGGAAAAGTAGTTGGGAGGTACTTCATACCAAAGGGGTTCAACACAAGGGT DNA 2: ACCCTTGTGTTGAACCCCTTTGGTATGAAGTACCTCCCAACTACTTTTCCTCACACTTGTACTCCATGACTAAATTCCCCCTCCCATTACAAACTAAAATCTTACTTTT |  | binds | binds
